Test results: PMC9889268

Molecular target: wild-type ClbP (Escherichia coli CFT073) (UniProt Q0P7K6)
Test: cryo-EM structure; single-particle cryo-EM of detergent-solubilised ClbP; 10 mM HEPES pH 7.3, 200 mM NaCl, 0.06% GDN; 3.5 mg/ml; C2 symmetry imposed

wild-type ClbP (from UniProt Q0P7K6 1-504) (enzyme)
stoichiometry N: 2
